Starred links: 1 amine or outer side, 2 acyl side, 3 side chain; linkers in the order of their positions; H or OH if unused. Non-standard residues stand in square brackets, D forms with d. Groups on a side chain read outwards from the residue. Primed or numbered codes have the meaning given here. No end group written: not given here. *: point of attachment. C20 diacid = O=C(O)CCCCCCCCCCCCCCCCCCC(=O)*; C18 diacid = O=C(O)CCCCCCCCCCCCCCCCC(=O)*; γGlu = O=C(O)[C@H](CCC(=O)[*:2])N[*:1]; αMeF = C[C@](N)(Cc1ccccc1)C(=O)O; (PEG)2 = polyethylene glycol 2; PEG4 = NCCOCCOCCOCCOCCC(=O)O; PEG4′ = polyethylene glycol; AEEA = NCCOCCOCC(=O)O; Aib = CC(C)(N)C(=O)O

The values below come from patent US20230357348A1 (AstraZeneca / MedImmune, published 2023).

One test deals with human glucagon receptor (human, UniProt P47871 26-477). As to the kind of experiment: cell-based or functional assay.
human glucagon receptor, sequence (P47871 26-477): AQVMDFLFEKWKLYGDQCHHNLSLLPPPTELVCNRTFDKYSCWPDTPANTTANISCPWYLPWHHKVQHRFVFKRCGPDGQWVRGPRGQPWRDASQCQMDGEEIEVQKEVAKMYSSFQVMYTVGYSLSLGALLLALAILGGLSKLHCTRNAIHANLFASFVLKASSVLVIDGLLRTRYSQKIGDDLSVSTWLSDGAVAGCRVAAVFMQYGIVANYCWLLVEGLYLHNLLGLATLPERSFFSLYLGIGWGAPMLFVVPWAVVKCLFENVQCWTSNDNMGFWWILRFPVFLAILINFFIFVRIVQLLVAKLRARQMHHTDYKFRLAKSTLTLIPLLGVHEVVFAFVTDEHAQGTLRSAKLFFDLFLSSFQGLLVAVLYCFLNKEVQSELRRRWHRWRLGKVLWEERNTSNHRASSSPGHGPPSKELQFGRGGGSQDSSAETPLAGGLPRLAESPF
Another test deals with human GLP-1 receptor (human, UniProt P43220 24-463). As to the kind of experiment: cell-based or functional assay.

For H[Aib]HGS[αMeF]TSDVSK[αMeF]LDSRAAK([γGlu-γGlu-C20 diacid])D[αMeF]VQ[Aib]IANT-NH2 [Peptide 275], the “hGluc-R EC50 (pM), cAMP” value with human glucagon receptor stood at 175 pM. Also, the “hGLP-1R EC50 (pM), cAMP” value with human GLP-1 receptor worked out at 111 pM.

B1: Peptide 271 (peptide)
peptide: H[Aib]HGS[αMeF]TSDVSK[αMeF]LDSRAAK([γGlu-C18 diacid])D[αMeF]VQ[Aib]IANT-NH2
modifications: N-terminus assumed
SMILES: CC[C@H](C)[C@H](NC(=O)C(C)(C)NC(=O)[C@H](CCC(N)=O)NC(=O)[C@@H](NC(=O)[C@](C)(Cc1ccccc1)NC(=O)[C@H](CC(=O)O)NC(=O)[C@H](CCCCNC(=O)CC[C@H](NC(=O)CCCCCCCCCCCCCCCCC(=O)O)C(=O)O)NC(=O)[C@H](C)NC(=O)[C@H](C)NC(=O)[C@H](CCCNC(=N)N)NC(=O)[C@H](CO)NC(=O)[C@H](CC(=O)O)NC(=O)[C@H](CC(C)C)NC(=O)[C@](C)(Cc1ccccc1)NC(=O)[C@H](CCCCN)NC(=O)[C@H](CO)NC(=O)[C@@H](NC(=O)[C@H](CC(=O)O)NC(=O)[C@H](CO)NC(=O)[C@@H](NC(=O)[C@](C)(Cc1ccccc1)NC(=O)[C@H](CO)NC(=O)CNC(=O)[C@H](Cc1c[nH]cn1)NC(=O)C(C)(C)NC(=O)[C@@H](N)Cc1c[nH]cn1)[C@@H](C)O)C(C)C)C(C)C)C(=O)N[C@@H](C)C(=O)N[C@@H](CC(N)=O)C(=O)N[C@H](C(N)=O)[C@@H](C)O
With B1, the “hGluc-R EC50 (pM), cAMP” value with human glucagon receptor turned out to be 28 pM. In addition, the “hGLP-1R EC50 (pM), cAMP” value in the test with human GLP-1 receptor came out at 54.6 pM.

As for H[Aib]HGS[αMeF]TSDVSK[αMeF]LDSRAAK([AEEA-AEEA-γGlu-C20 diacid])D[αMeF]VQ[Aib]IANT-NH2 [Peptide 280], the “hGluc-R EC50 (pM), cAMP” value with human glucagon receptor was 155 pM. The “hGLP-1R EC50 (pM), cAMP” value with human GLP-1 receptor was determined as 78.3 pM.

H[Aib]HGS[αMeF]TSDVSK[αMeF]LDSRAAK([γGlu-C20 diacid])D[αMeF]VQ[Aib]IANT-NH2 [Peptide 276]: in the test with human glucagon receptor, the “hGluc-R EC50 (pM), cAMP” value was 91.4 pM. Besides, the “hGLP-1R EC50 (pM), cAMP” value with human GLP-1 receptor was found to be 143 pM.

As for H[Aib]HGS[αMeF]TSDVSK[αMeF]LDSRAAK([γGlu-γGlu-C18 diacid])D[αMeF]VQ[Aib]IANT-NH2 [Peptide 270], the “hGluc-R EC50 (pM), cAMP” value with human glucagon receptor came out at 31.3 pM. The “hGLP-1R EC50 (pM), cAMP” value with human GLP-1 receptor is 24.4 pM.

B2: Peptide 268 (peptide)
peptide: H[Aib]HGS[αMeF]TSDVSK[αMeF]LDSRAAK([AEEA-γGlu-C20 diacid])D[αMeF]VQ[Aib]IANT-NH2
modifications: N-terminus assumed
SMILES: CC[C@H](C)[C@H](NC(=O)C(C)(C)NC(=O)[C@H](CCC(N)=O)NC(=O)[C@@H](NC(=O)[C@](C)(Cc1ccccc1)NC(=O)[C@H](CC(=O)O)NC(=O)[C@H](CCCCNC(=O)COCCOCCNC(=O)CC[C@H](NC(=O)CCCCCCCCCCCCCCCCCCC(=O)O)C(=O)O)NC(=O)[C@H](C)NC(=O)[C@H](C)NC(=O)[C@H](CCCNC(=N)N)NC(=O)[C@H](CO)NC(=O)[C@H](CC(=O)O)NC(=O)[C@H](CC(C)C)NC(=O)[C@](C)(Cc1ccccc1)NC(=O)[C@H](CCCCN)NC(=O)[C@H](CO)NC(=O)[C@@H](NC(=O)[C@H](CC(=O)O)NC(=O)[C@H](CO)NC(=O)[C@@H](NC(=O)[C@](C)(Cc1ccccc1)NC(=O)[C@H](CO)NC(=O)CNC(=O)[C@H](Cc1c[nH]cn1)NC(=O)C(C)(C)NC(=O)[C@@H](N)Cc1c[nH]cn1)[C@@H](C)O)C(C)C)C(C)C)C(=O)N[C@@H](C)C(=O)N[C@@H](CC(N)=O)C(=O)N[C@H](C(N)=O)[C@@H](C)O
Take B2: the “hGluc-R EC50 (pM), cAMP” value in the test with human glucagon receptor turned out to be 29.3 pM. For the same molecule, the “hGLP-1R EC50 (pM), cAMP” value with human GLP-1 receptor was determined as 39.5 pM.

With H[Aib]HGS[αMeF]TSDVSK[αMeF]LDSRAAK([PEG4′-γGlu-γGlu-C20 diacid])D[αMeF]VQ[Aib]IANT-NH2 [Peptide 269], the “hGluc-R EC50 (pM), cAMP” value with human glucagon receptor came out at 271 pM. In the test with human GLP-1 receptor, the “hGLP-1R EC50 (pM), cAMP” value came out at 52 pM.

Turning to H[Aib]HGS[αMeF]TSDVSK[αMeF]LDSRAAK([AEEA-γGlu-AEEA-γGlu-C18 diacid])D[αMeF]VQ[Aib]IANT-NH2 [Peptide 260], the “hGluc-R EC50 (pM), cAMP” value with human glucagon receptor was found to be 76.9 pM. The “hGLP-1R EC50 (pM), cAMP” value with human GLP-1 receptor was 33.1 pM.

For H[Aib]HGS[αMeF]TSDVSK[αMeF]LDSRAAK([AEEA-γGlu-γGlu-C18 diacid])D[αMeF]VQ[Aib]IANT-NH2 [Peptide 274], in the test with human glucagon receptor, the “hGluc-R EC50 (pM), cAMP” value is 31.3 pM. For the same molecule, in the test with human GLP-1 receptor, the “hGLP-1R EC50 (pM), cAMP” value came out at 27.1 pM.

Take H[Aib]HGS[αMeF]TSDVSK[αMeF]LDSRAAK([AEEA-C18 diacid])D[αMeF]VQ[Aib]IANT-NH2 [Peptide 273]: in the test with human glucagon receptor, the “hGluc-R EC50 (pM), cAMP” value stood at 23.3 pM. Further, the “hGLP-1R EC50 (pM), cAMP” value with human GLP-1 receptor stood at 22.1 pM.

As for H[Aib]HGS[αMeF]TSDVSK[αMeF]LDSRAAK([AEEA-AEEA-γGlu-γGlu-C20 diacid])D[αMeF]VQ[Aib]IANT-NH2 (also: S2: Aib per table, X6: αMePhe, F per table) [Peptide 282], the “hGluc-R EC50 (pM), cAMP” value with human glucagon receptor was found to be 1140 pM. Also, in the test with human GLP-1 receptor, the “hGLP-1R EC50 (pM), cAMP” value came to 1230 pM.

Turning to H[Aib]HGS[αMeF]TSDVSK[αMeF]LDSRAAK([AEEA-C20 diacid])D[αMeF]VQ[Aib]IANT-NH2 [Peptide 278], the “hGluc-R EC50 (pM), cAMP” value with human glucagon receptor was found to be 83.5 pM. The “hGLP-1R EC50 (pM), cAMP” value with human GLP-1 receptor amounted to 78.9 pM.

As for H[Aib]HGS[αMeF]TSDVSK[αMeF]LDSRAAK([AEEA-AEEA-C18 diacid])D[αMeF]VQ[Aib]IANT-NH2 [Peptide 272], the “hGluc-R EC50 (pM), cAMP” value with human glucagon receptor amounted to 14.3 pM. Also, the “hGLP-1R EC50 (pM), cAMP” value with human GLP-1 receptor amounted to 15.7 pM.

Take H[Aib]HGS[αMeF]TSDVSK[αMeF]LDSRAAK([AEEA-γGlu-γGlu-C20 diacid])D[αMeF]VQ[Aib]IANT-NH2 [Peptide 279]: in the test with human glucagon receptor, the “hGluc-R EC50 (pM), cAMP” value was 150 pM. Also, the “hGLP-1R EC50 (pM), cAMP” value with human GLP-1 receptor was 86.5 pM.

B3: Peptide 261 (peptide)
peptide: H[Aib]HGS[αMeF]TSDVSK[αMeF]LDSRAAK([PEG4-γGlu-C18 diacid])D[αMeF]VQ[Aib]IANT-NH2
modifications: N-terminus assumed
SMILES: CC[C@H](C)[C@H](NC(=O)C(C)(C)NC(=O)[C@H](CCC(N)=O)NC(=O)[C@@H](NC(=O)[C@](C)(Cc1ccccc1)NC(=O)[C@H](CC(=O)O)NC(=O)[C@H](CCCCNC(=O)CCOCCOCCOCCOCCNC(=O)CC[C@H](NC(=O)CCCCCCCCCCCCCCCCC(=O)O)C(=O)O)NC(=O)[C@H](C)NC(=O)[C@H](C)NC(=O)[C@H](CCCNC(=N)N)NC(=O)[C@H](CO)NC(=O)[C@H](CC(=O)O)NC(=O)[C@H](CC(C)C)NC(=O)[C@](C)(Cc1ccccc1)NC(=O)[C@H](CCCCN)NC(=O)[C@H](CO)NC(=O)[C@@H](NC(=O)[C@H](CC(=O)O)NC(=O)[C@H](CO)NC(=O)[C@@H](NC(=O)[C@](C)(Cc1ccccc1)NC(=O)[C@H](CO)NC(=O)CNC(=O)[C@H](Cc1c[nH]cn1)NC(=O)C(C)(C)NC(=O)[C@@H](N)Cc1c[nH]cn1)[C@@H](C)O)C(C)C)C(C)C)C(=O)N[C@@H](C)C(=O)N[C@@H](CC(N)=O)C(=O)N[C@H](C(N)=O)[C@@H](C)O
B3: the “hGluc-R EC50 (pM), cAMP” value with human glucagon receptor was found to be 29.4 pM. Also, in the test with human GLP-1 receptor, the “hGLP-1R EC50 (pM), cAMP” value was 16.2 pM.

As to H[Aib]HGS[αMeF]TSDVSKYLDSRAAK([AEEA-AEEA-γGlu-γGlu-C20 diacid])D[αMeF]VQ[Aib]IANT-NH2 (also: F6: αMePhe per table, X13: αMePhe, Y per table) [Peptide 283], the “hGluc-R EC50 (pM), cAMP” value in the test with human glucagon receptor was found to be 552 pM. Further, the “hGLP-1R EC50 (pM), cAMP” value with human GLP-1 receptor was found to be 129 pM.

Consider H[Aib]HGS[αMeF]TSDVSK[αMeF]LDSRAAK([AEEA-γGlu-AEEA-γGlu-C20 diacid])D[αMeF]VQ[Aib]IANT-NH2 [Peptide 266], for which, in the test with human glucagon receptor, the “hGluc-R EC50 (pM), cAMP” value was determined as 293 pM. Besides, in the test with human GLP-1 receptor, the “hGLP-1R EC50 (pM), cAMP” value turned out to be 66.5 pM.

Take H[Aib]HGS[αMeF]TSDVSK[αMeF]LDSRAAK([AEEA-γGlu-AEEA-C20 diacid])D[αMeF]VQ[Aib]IANT-NH2 [Peptide 265]: the “hGluc-R EC50 (pM), cAMP” value with human glucagon receptor came to 131 pM. Besides, the “hGLP-1R EC50 (pM), cAMP” value with human GLP-1 receptor is 71.2 pM.

For the molecule H[Aib]HGS[αMeF]TSDVSK[αMeF]LDSRAAK([(PEG)2-(PEG)2-γGlu-γGlu-C20 diacid])D[αMeF]VQ[Aib]IANT-NH2 [Peptide 264], the “hGluc-R EC50 (pM), cAMP” value in the test with human glucagon receptor amounted to 297 pM. The “hGLP-1R EC50 (pM), cAMP” value with human GLP-1 receptor came out at 69.5 pM.

For H[Aib]HGS[αMeF]TSDVSK[αMeF]LDSRAAK([PEG4-γGlu-γGlu-C18 diacid])D[αMeF]VQ[Aib]IANT-NH2 [Peptide 263], the “hGluc-R EC50 (pM), cAMP” value with human glucagon receptor was 64.6 pM. Besides, in the test with human GLP-1 receptor, the “hGLP-1R EC50 (pM), cAMP” value worked out at 25.4 pM.

In the case of H[Aib]HGS[αMeF]TSDVSK[αMeF]LDSRAAK([AEEA-AEEA-C20 diacid])D[αMeF]VQ[Aib]IANT-NH2 [Peptide 277], in the test with human glucagon receptor, the “hGluc-R EC50 (pM), cAMP” value was found to be 57.3 pM. Further, the “hGLP-1R EC50 (pM), cAMP” value with human GLP-1 receptor is 49.5 pM.

H[Aib]HGS[αMeF]TSDVSK[αMeF]LDSRAAK([AEEA-γGlu-C18 diacid])D[αMeF]VQ[Aib]IANT-NH2 [Peptide 262]: in the test with human glucagon receptor, the “hGluc-R EC50 (pM), cAMP” value was found to be 11.7 pM. Moreover, in the test with human GLP-1 receptor, the “hGLP-1R EC50 (pM), cAMP” value is 13 pM.

H[Aib]HGS[αMeF]TSDVSK[αMeF]LDSRAAK([PEG4-γGlu-C20 diacid])D[αMeF]VQ[Aib]IANT-NH2 [Peptide 267]: the “hGluc-R EC50 (pM), cAMP” value with human glucagon receptor came out at 128 pM. In addition, the “hGLP-1R EC50 (pM), cAMP” value in the test with human GLP-1 receptor is 65.6 pM.
